From patent US20150071927A1 (UNIVERSITY OF HONG KONG, published 2015)
Values belong to the binder of their own block, whether it stands above or below them.

Legend:
[1] = target: T1, membrane-associated IGF-IR on SKOV-3 cells (human, UniProt P08069 31-936); assay: flow cytometry on SKOV-3 cells
Description: (§1) MCF-7 or SKOV-3 cells were detached using enzyme-free cell-disassociation buffer (Invitrogen), washed twice with PBS, and incubated at 4° C. for 2 h with antibodies in fluorescence-activated cell sorting (FACS) buffer (1% FBS in PBS). Cell surface bound antibodies were detected using PE conjugated to anti-human Fc by incubation at 4° C. for 1 h followed by washing twice with FACS buffer and fixation with 2% paraformaldehyde in FACS buffer. The stained cells were analyzed with a BD flow cytometer and FlowJo software.

[2] = target: T2, recombinant IGF-IR ectodomain (His-tagged) (human, UniProt P08069 31-935); assay: indirect ELISA, IGF-IR ectodomain coated, biotinylated HER2 ectodomain detected with streptavidin-HRP
T2 construct: also called recombinant IGF-IR (coated); recombinant IGF-IR ectodomains
Description: Recombinant ectodomains of IGF-IR or HER2 ([…] in both cases) were coated on 96-well high-binding ELISA plates at 4° C. overnight. The plates were washed and blocked with 3% BSA in PBS at 37° C. for 2 h. Two-fold serially diluted mAb Herceptin or m590 were added to the wells and the bound mAbs were detected by HRP conjugated anti-human Fc as secondary antibody and TMB substrate. Optical density at 450 nm (OD450 nm) was measured after color development at RT for 30 min. In the case of Bi-Ab, recombinant IGF-IR ectodomains were coated on the plates. Following addition of 2-fold serially diluted Bi-Ab and incubation at RT for 2 h, plates were washed and biotinylated HER2 ectodomain (2 μg/ml) was added to each well. Bound HER2 ectodomains were detected by HRP conjugated streptavidin and TMB substrate.
Following addition of the anti-HER2/anti-IGF-IR antibodies to recombinant IGF-IR-coated plates biotinylated recombinant HER2 ectodomains were added. Bound HER2 ectodomains were detected by HRP conjugated streptavidin and TMB substrate.

[3] = target: T1, membrane-associated IGF-IR on SKOV-3 …; assay: flow cytometry on SKOV-3 cells, MFI against antibody concentration
Description: as §1

T1 sequence (P08069 31-936 limits assumed): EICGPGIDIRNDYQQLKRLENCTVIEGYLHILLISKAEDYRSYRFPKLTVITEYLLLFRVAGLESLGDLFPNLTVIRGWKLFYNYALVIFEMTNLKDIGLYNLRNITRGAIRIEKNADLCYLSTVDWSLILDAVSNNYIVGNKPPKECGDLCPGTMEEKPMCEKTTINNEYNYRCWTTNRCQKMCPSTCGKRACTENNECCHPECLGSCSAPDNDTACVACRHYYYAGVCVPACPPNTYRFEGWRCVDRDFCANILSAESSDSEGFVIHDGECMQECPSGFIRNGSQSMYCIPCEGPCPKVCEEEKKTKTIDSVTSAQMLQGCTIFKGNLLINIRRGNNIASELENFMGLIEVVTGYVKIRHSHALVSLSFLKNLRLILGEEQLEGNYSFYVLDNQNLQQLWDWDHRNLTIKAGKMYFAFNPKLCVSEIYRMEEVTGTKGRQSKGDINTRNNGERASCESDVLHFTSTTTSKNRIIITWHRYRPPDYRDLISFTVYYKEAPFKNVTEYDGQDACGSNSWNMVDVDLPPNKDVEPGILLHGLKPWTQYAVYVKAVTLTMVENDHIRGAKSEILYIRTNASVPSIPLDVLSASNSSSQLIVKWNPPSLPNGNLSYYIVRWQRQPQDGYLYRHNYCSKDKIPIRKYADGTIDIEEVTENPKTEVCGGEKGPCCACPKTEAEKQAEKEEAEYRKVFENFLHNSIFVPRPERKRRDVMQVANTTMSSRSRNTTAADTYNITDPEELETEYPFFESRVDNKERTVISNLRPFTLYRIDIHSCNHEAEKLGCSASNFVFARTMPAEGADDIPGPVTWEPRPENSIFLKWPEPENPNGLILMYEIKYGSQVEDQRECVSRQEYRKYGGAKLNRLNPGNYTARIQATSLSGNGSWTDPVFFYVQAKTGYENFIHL
T2 sequence (P08069 31-935): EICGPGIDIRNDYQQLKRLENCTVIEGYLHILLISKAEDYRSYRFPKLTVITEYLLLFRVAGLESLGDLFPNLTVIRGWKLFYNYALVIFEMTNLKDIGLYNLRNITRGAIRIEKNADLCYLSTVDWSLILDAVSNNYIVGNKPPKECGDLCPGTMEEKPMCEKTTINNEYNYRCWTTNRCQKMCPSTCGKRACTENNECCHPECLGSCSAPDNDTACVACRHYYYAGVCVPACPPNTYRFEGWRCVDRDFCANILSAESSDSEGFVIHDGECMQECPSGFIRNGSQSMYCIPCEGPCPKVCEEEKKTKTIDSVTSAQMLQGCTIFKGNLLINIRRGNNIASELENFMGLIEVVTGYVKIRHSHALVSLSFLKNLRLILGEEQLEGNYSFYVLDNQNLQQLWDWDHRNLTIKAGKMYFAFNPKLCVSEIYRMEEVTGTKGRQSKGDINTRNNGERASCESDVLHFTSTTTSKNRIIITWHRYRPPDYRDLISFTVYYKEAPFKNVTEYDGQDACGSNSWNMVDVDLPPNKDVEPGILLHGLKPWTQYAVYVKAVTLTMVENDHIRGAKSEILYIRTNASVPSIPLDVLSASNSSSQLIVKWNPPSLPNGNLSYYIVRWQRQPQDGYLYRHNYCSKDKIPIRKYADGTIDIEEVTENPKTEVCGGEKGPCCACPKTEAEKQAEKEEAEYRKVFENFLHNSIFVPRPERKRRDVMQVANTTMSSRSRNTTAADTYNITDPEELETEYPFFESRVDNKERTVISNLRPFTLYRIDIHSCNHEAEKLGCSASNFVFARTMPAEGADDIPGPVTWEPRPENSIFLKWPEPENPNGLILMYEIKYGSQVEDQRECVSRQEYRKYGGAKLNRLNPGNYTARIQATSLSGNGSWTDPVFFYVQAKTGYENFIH

binding result [1]: binds
binding result [2]: binds
B1: anti-HER2/anti-IGF-IR bi-specific antibody (Bi-Ab) (bispecific antibody, human IgG1, kappa)
heavy 1: not shown
light 1: not shown
heavy 2: not shown
light 2: QIVLTQSPAIMSASPGEKVTITCSASSSVSYIHWFQQKPGTSPKVWIYGTSNLASGVPARFTGSGSGTSYSLTISRMEAEDAATYYCQQRSSYPFTFGSGTKLEIKRTVAAPSVFIFPPSDEQLKSGTASVVCLLNNFYPREAKVQWKVDNALQSGNSQESVTEQDSKDSTYSLSSTLTLSKADYEKHKVYACEVTHQGLSLPVTKSLNRREC
notes: also called anti-IGF-IR/anti-HER2 hybrid IgG; copies: 1 + 1 + 1 + 1

binding result [3]: binds
B2: m590 anti-IGF-IR mouse/human chimeric antibody (antibody, human IgG1, kappa, V domains shown)
VH: EVQLQQSGPELEQPGSSVKISCKASGYSFTAYYMHWVKQSHGKSLEWIGRINPDNGGNSYNQKFKGKAILTVDKSSNTAYMELRSLTSEDSAVYYCAKSTSYDYDGYWYFDVWGAGTTVTVSS
VL: QIVLTQSPAIMSASPGEKVTITCSASSSVSYIHWFQQKPGTSPKVWIYGTSNLASGVPARFTGSGSGTSYSLTISRMEAEDAATYYCQQRSSYPFTFGSGTKLEIKR
notes: also called human/mouse chimeric mAb m590
